Experimental findings from patent US20150025225A1 (SHIONOGI, published 2015) are described below.

Numbering of substitutions follows the chain as printed.

One assay concerns the target T1, human EL-C2 tag (human, UniProt Q9Y5X9 21-500).
T1 sequence: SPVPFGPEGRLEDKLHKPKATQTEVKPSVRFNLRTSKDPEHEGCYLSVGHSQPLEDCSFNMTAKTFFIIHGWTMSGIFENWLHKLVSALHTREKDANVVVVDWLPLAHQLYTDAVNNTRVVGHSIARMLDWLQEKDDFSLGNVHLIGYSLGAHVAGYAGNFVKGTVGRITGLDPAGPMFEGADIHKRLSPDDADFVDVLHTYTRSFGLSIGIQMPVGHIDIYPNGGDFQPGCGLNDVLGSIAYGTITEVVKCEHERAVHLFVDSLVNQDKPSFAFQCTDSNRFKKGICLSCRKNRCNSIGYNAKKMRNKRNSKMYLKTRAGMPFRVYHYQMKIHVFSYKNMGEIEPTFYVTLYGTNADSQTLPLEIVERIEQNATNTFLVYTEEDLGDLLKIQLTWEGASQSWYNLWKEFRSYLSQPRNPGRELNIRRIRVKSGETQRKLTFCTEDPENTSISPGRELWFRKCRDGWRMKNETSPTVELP
The assay can be described thus: cell-based or functional assay.

Assay [1] concerns the target T2, cynomolgus monkey EL-C2 tag (cynomolgus monkey, UniProt Q9Y5X9 21-500 (human entry), limits assumed).
T2 construct: used as heparin extract of transfected HEK293F cells; also called cynomolgus EL
T2 chain: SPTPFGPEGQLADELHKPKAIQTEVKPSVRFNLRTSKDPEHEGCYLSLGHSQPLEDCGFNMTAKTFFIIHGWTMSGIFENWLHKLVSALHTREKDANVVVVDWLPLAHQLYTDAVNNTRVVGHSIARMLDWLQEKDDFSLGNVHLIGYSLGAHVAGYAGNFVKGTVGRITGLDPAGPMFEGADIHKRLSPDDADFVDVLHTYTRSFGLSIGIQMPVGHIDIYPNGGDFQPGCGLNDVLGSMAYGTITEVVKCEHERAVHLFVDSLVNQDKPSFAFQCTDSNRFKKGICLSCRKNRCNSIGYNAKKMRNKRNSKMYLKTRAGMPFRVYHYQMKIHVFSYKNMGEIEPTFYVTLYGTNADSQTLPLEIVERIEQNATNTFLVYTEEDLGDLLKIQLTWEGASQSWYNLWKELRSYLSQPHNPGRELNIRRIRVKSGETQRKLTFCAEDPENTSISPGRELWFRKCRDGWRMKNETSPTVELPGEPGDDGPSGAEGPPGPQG
Description: ELISA-type titration, A450 against antibody concentration; protocol not described in the text. On the technique in general: An ELISA detects its analyte on a solid surface through an enzyme-linked reagent.

The next assay deals with T3, mouse EL-C2 tag (mouse, UniProt Q9WVG5 21-500).
T3 construct: used as heparin extract of transfected HEK293F cells
T3 sequence: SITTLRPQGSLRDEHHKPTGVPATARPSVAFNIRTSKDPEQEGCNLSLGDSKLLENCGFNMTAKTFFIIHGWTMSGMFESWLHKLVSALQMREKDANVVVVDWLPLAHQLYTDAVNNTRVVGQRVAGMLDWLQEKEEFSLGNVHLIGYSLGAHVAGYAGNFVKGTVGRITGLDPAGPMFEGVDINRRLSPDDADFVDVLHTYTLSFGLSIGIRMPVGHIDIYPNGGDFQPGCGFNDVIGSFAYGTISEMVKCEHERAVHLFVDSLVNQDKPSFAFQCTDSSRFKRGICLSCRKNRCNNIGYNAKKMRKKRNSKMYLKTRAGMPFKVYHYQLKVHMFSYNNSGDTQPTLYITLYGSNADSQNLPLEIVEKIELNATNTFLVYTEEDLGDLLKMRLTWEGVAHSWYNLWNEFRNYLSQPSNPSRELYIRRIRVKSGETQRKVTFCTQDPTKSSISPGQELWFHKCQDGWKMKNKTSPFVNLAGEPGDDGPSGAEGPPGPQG
Described as above.

A further assay has as its target T4, Baboon EL-C2 tag (baboon, UniProt Q9Y5X9 21-500 (human entry), limits assumed).
T4 construct: used as heparin extract of transfected HEK293F cells; also called baboon EL heparin extract
T4 chain: T2 chain with A12E, G141E
The description is as above.

Assay [2] addresses T5, human EL[331-459]-mouse EL-C2 tag (human/mouse chimera, UniProt Q9WVG5 21-500 (mouse entry)).
T5 construct: used as heparin extract of transfected HEK293F cells; also called human-mouse chimera EL; Human-Mouse chimeric EL
T5 chain: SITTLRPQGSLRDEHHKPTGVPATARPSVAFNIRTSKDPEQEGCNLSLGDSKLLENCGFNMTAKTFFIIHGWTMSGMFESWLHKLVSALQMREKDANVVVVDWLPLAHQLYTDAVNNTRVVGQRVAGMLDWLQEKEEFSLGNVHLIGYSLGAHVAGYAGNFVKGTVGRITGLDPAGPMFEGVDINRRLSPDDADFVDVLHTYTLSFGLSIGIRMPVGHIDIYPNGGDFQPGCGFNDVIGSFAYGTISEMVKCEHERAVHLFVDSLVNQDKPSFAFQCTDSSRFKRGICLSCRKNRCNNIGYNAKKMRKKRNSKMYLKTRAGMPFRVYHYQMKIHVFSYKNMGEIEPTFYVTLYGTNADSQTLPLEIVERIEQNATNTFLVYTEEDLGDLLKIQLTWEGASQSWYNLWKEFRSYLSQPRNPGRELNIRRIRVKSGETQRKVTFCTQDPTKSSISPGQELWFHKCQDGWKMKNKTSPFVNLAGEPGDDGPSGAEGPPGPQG
Described as above.

B1: 12B10 antibody (antibody, IgG2a, V domains shown)
VH: QVTLKESGPGILKPSQTLSLTCSFSGFSLSTSGMGVGWIRQPSGKGLEWLAHIWWNDEKYYNPSLKSQLTISKDTSRNQVFLKITSVDTADTATYYCARSYDGSPFPSWGQGTLVTVSA
VL: DIQMTQSPSSLSASLGGKVTITCKASQDINKYIAWFQHKPGKGPRLLMAYPFTLQPGIPSRFSGNGSGRDYSFSISNLEPEDIATYYCLQYDNLLWTFGGGTRLEIK
The term EC50 (read off the curve) denotes the midpoint of the concentration-response curve. Regarding B1, the “IC50 of EL enzyme activity (NEFA release from HDL)” value in the assay with human EL-C2 tag worked out at 47 nM. Besides, the figures for the “EC50 (read off the curve)” value (in assay [1]; with Baboon EL-C2 tag; in assay [2]) were about 0.007 µg/mL, about 0.02 µg/mL and about 0.04 µg/mL, respectively. Further, in the assay with mouse EL-C2 tag, the binding result was “no binding”.
